Assay results taken from patent US20150330991A1, “METHOD FOR IMPROVING TARGET AFFINITY OF PEPTIDE” (GWANGJU INSTITUTE OF SCIENCE AND TECHNOLOGY, priority 2012, published 2015).

Tests used:
[1] = target: vascular endothelial growth factor receptor 1 (VEGFR1) (UniProt P17948); test: SPR (Biacore X), VEGFR1 immobilised on a CM5 chip per paragraph 186; four sensorgrams with fitted curves
[2] = target: vascular endothelial growth factor receptor 1 (VEGFR1) (UniProt P17948); test: SPR (Biacore X), VEGFR1 immobilised on a CM5 chip per paragraph 186; compared with the linear peptide CQRPPR at 1 mM

Sequence of vascular endothelial growth factor receptor 1 (VEGFR1) (P17948 27-756 limits assumed): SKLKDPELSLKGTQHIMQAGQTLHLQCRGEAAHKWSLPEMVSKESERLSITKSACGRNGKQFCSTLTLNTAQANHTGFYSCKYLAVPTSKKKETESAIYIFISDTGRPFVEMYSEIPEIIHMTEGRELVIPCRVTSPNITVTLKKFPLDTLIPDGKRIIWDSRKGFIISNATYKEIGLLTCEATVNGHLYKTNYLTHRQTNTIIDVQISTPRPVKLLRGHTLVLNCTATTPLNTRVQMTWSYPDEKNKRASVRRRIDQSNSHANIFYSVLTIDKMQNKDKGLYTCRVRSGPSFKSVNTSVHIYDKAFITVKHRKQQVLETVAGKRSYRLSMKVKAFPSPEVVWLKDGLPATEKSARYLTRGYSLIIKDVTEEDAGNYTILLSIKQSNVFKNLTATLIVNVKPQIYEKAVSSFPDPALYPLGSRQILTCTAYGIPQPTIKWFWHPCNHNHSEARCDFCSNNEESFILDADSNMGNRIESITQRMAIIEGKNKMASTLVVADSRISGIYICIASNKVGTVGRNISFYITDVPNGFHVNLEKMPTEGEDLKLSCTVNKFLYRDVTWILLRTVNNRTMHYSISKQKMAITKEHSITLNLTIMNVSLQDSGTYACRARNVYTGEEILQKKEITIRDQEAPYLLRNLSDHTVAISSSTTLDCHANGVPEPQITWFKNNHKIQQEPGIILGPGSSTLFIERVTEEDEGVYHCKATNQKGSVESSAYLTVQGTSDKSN

For “bipodal peptide drawn as CQRPPR-GGG-[W--W hairpin]-G-RIPKNR”, which Kd [1] is on record?
The Kd was 212 nM.

What about the fold increase in affinity [2] of the same substance?
The fold increase in affinity was over 10000 fold.
